These are literature values, as cited in publication PMC6899468.

The target of the series is neuropilin-1 (Homo sapiens) (UniProt O14786).
UniProt O14786, sequence (O14786 22-856): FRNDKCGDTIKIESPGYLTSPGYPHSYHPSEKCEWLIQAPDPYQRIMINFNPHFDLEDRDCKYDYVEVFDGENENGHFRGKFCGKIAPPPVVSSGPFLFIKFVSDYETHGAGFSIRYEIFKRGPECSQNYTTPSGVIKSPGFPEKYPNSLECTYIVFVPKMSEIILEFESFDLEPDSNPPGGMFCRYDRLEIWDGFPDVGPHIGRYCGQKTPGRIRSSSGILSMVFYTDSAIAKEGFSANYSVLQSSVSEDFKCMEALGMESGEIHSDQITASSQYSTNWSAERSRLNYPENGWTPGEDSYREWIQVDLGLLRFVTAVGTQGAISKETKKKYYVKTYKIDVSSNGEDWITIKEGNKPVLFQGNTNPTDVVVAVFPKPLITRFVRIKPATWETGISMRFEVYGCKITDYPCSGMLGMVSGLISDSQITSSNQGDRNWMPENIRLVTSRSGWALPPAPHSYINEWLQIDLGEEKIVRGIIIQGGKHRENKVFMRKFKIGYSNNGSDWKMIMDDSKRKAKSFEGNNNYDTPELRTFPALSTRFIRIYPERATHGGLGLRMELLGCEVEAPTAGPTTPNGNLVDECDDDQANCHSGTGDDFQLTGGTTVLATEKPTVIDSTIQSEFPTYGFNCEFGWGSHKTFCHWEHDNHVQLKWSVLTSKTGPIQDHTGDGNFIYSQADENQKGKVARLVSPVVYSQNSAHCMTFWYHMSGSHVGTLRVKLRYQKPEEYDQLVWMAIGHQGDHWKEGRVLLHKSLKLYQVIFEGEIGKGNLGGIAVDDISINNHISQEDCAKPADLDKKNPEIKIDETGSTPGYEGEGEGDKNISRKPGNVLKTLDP

As usually defined, the Kd is the constant that tells how readily two partners part at equilibrium. Take “chromogranin A fragment hCgA1-373 1-373 (from UniProt P10645)”: the Kd is 3.49 nM.
